Where two headings read alike, the source gives them in different places.
T1: recombinant human PD-L2 (human PD-L2 antigen) (human, UniProt Q9BQ51 20-219, limits assumed)
T1 construct: The Biacore analyte and the ELISA antigen are only called human PD-L2 antigen / recombinant hPD-L2; Whole entry named; also called hPD-L2; recombinant hPD-L2
T1 sequence (looked up): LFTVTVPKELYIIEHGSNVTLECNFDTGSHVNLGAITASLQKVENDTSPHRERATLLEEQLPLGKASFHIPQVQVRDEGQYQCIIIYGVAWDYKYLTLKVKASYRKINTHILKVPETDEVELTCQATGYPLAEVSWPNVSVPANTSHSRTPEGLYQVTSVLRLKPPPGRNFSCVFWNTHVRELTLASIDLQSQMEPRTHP

T2: human PD-L2 on CHO-K1 cells of the Promega PD-1/PD-L2 blockade bioassay (human, UniProt Q9BQ51 20-273)
T2 sequence (looked up): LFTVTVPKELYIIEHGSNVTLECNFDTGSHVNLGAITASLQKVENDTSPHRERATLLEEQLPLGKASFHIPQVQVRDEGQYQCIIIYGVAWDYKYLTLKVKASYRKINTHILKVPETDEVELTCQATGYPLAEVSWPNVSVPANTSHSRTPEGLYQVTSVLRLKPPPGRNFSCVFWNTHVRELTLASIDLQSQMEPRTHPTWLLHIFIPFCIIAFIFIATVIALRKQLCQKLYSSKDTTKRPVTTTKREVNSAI


Key:
[1] = biological target: T1, recombinant human PD-L2 (human PD-L2 …); assay: SPR (Biacore 8K), single cycle kinetics, antibody in culture supernatant, human PD-L2 antigen
Source text: Table 2: Single cycle kinetic parameters of chimeric (VH0/VK0) and humanized variants (tested as cell culture supernatants) binding to human PD-L2 antigen as determined using the Biacore 8K. As used herein, the term “KD” is intended to refer to the dissociation equilibrium constant of a particular antibody-antigen interaction, ka is the binding rate constant and kd is the dissociation rate constant. The binding affinity of antibodies of the disclosed invention may be measured or determined by standard antibody-antigen assays. The relative KD was calculated by dividing the KD of the humanized variant by that of the VH0/VK0 assayed in the same experiment.

[2] = biological target: T2, human PD-L2 on CHO-K1 cells of the …; assay: cell-based or functional assay
[3] = biological target: T2, human PD-L2 on CHO-K1 cells of the …; assay: cell-based or functional assay; remark: listed apart in the source

Row | Binder | Kd [1] [nM] | Relative KD (KD of variant / KD of VH0/VK0) [1] | koff [1] [s⁻¹] | EC50 (PD-1/PD-L2 blockade reporter assay, luminescence) [2] [nM] | EC50 (PD-1/PD-L2 blockade reporter assay, luminescence) [3] [nM]
1 | VH6/VK1 (antibody, V domains shown, hIgG1 backbone, CHO expressed) VH: QVQLVQSGAEVKKPGSSVKVSCKASGYSFSNYFIEWVKQPPGKGLEWIGLNIPGSGGSNYAEKFKGRVTITADKSTSTAYMELSSLRSEDTAVYYCARRRLPPDWYFDVWGQGTTVTVSS VL: DVVMTQSPLSLPVTLGQPASISCRSSQSLVHSDGNTYLHWYQQKPGQPPKLLIYKVSNRFSGVPDRFSGSGSGTDFTLKISRVEAEDVGVYFCSQSTHVPWTFGGGTKVEIK | 0.0529 | 1.48 | 0.000121 | 0.82 | 
2 | VH6/VK3 (antibody, V domains shown, hIgG1 backbone, CHO expressed) VH: QVQLVQSGAEVKKPGSSVKVSCKASGYSFSNYFIEWVKQPPGKGLEWIGLNIPGSGGSNYAEKFKGRVTITADKSTSTAYMELSSLRSEDTAVYYCARRRLPPDWYFDVWGQGTTVTVSS VL: DVVMTQSPLSLPVTLGQPASISCRSSQSLVHSGGNTYLHWYQQKPGQPPKLLIYKVSNRFSGVPDRFSGSGSGTDFTLKISRVEAEDVGVYFCSQSTHVPWTFGGGTKVEIK | 0.262 | 7.32 | 0.000444 | 0.62 | 1.11
3 | VH7/VK2 (antibody, V domains shown, hIgG1 backbone, CHO expressed) VH: QVQLVQSGAELKKPGSSVKVSCKASGYAFSNYFIEWVKQPPGKGLEWIGLNIPGSGGSNYAEKFKGRATITADKSTSTAYMELSSLRSEDTAVYYCARRRLPPDWYFDVWGQGTTVTVSS VL: DVVMTQSPLSLPVTLGQPASISCRSSQSLVHSDGNTYLHWYQQKPGQPPKLLIYKVSNRFSGVPDRFSGSGSGTDFTLKISRVEAEDVGVYYCSQSTHVPWTFGGGTKVEIK | 0.0523 | 1.46 | 0.000118 | 0.6 | 
4 | VH6/VK2 (antibody, V domains shown, hIgG1 backbone, CHO expressed) VH: QVQLVQSGAEVKKPGSSVKVSCKASGYSFSNYFIEWVKQPPGKGLEWIGLNIPGSGGSNYAEKFKGRVTITADKSTSTAYMELSSLRSEDTAVYYCARRRLPPDWYFDVWGQGTTVTVSS VL: DVVMTQSPLSLPVTLGQPASISCRSSQSLVHSDGNTYLHWYQQKPGQPPKLLIYKVSNRFSGVPDRFSGSGSGTDFTLKISRVEAEDVGVYYCSQSTHVPWTFGGGTKVEIK | 0.0588 | 1.64 | 0.000128 | 0.64 | 
5 | VH8/VK3 (antibody, V domains shown, hIgG1 backbone, CHO expressed) VH: QVQLVQSGAEVKKPGSSVKVSCKASGYAFSNYFIEWVKQPPGKGLEWIGLNIPGSGGSNYAEKFKGRATITADKSTSTAYMELSSLRSEDTAVYYCARRRLPPDWYFDVWGQGTTVTVSS VL: DVVMTQSPLSLPVTLGQPASISCRSSQSLVHSGGNTYLHWYQQKPGQPPKLLIYKVSNRFSGVPDRFSGSGSGTDFTLKISRVEAEDVGVYFCSQSTHVPWTFGGGTKVEIK | 0.244 | 6.82 | 0.000388 |  | 
